This note sets out measurements from article PMC8399745, “Nanostructured Lipid Carriers (NLCs) for Oral Peptide Drug Delivery: About the Impact of Surface Decoration” (Pharmaceutics, 2021).

The data set is described as follows: Log P octanol/water of INS and INS-SDS complexes. The class given is physicochemical. The following applies: shake-flask octanol/water (1:1), 1 mg in 1 mL, 37 °C, 500 rpm, 12 h, centrifugation, INS quantified in each phase by HPLC (214 nm); means, n = 3. On the procedure: Log Poctanol/water of INS and INS-SDS complexes was determined using a previously described method with minor modification. Briefly, 1 mg of each product was added to 1 mL of octanol/water (1:1) (Sigma-Aldrich Chemie GmbH, Vienna, Austria). The mixtures were incubated at 37 °C while stirring at 500 rpm for 12 h. Thereafter, samples were centrifuged at 13,400 rpm for 10 min. Aliquots of 100 μL were withdrawn from each phase (octanol and water) and analyzed via HPLC after dilution with 300 μL of methanol (Sigma-Aldrich Chemie GmbH, Vienna, Austria) containing 0.1% (v/v) TFA. Log P was calculated according to the following equation: Log P=Log(Concentration of INS in octanol phase/Concentration of INS in water phase)

For Human recombinant insulin, the “log Poctanol/water” value was −1.8.
